Assay [1] has as its target T1, P62 (endogenous, mouse brain) (mouse, UniProt Q64337 2-442, limits assumed).
T1 construct: Endogenous protein in mouse brain tissue
Kind of assay: immunoprecipitation / immunoblot from AAV2-injected mouse brains after MCAO (FIGS. 6F and 6G).

In assay [2] the target is T1, P62 (endogenous, mouse brain). Kind of assay: protein ligation assay (PLA) in situ, mouse brain CA1 after MCAO.

B1: GFP-EBP1-K376A expressed from AAV2 in mouse brain (other, UniProt Q9UQ80 1-394, looked up)
chain: MSGEDEQQEQTIAEDLVVTKYKMGGDIANRVLRSLVEASSSGVSVLSLCEKGDAMIMEETGKIFKKEKEMKKGIAFPTSISVNNCVCHFSPLKSDQDYILKEGDLVKIDLGVHVDGFIANVAHTFVVDVAQGTQVTGRKADVIKAAHLCAEAALRLVKPGNQNTQVTEAWNKVAHSFNCTPIEGMLSHQLKQHVIDGEKTIIQNPTDQQKKDHEKAEFEVHEVYAVDVLVSSGEGKAKDAGQRTTIYKRDPSKQYGLKMKTSRAFFSEVERRFDAMPFTLRAFEDEKKARMGVVECAKHELLQPFNVLYEKEGEFVAQFKFTVLLMPNGPMRITSGPFEPDLYKSEMEVQDAELKALLQSSASRKTQKKKKKKASATAENATSGETLEENEAGD
notes: also called AAV2-GFP-EBP1-K376A; AAV2-K376A; not shown: GFP tag
B1: the binding result in assay [1] was “no binding”.

B2: EBP1 (endogenous, mouse brain) (other, UniProt P50580 2-394, looked up)
chain: SGEDEQQEQTIAEDLVVTKYKMGGDIANRVLRSLVEASSSGVSVLSLCEKGDAMIMEETGKIFKKEKEMKKGIAFPTSISVNNCVCHFSPLKSDQDYILKEGDLVKIDLGVHVDGFIANVAHTFVIGVAQGTQVTGRKADVIKAAHLCAEAALRLVKPGNQNTQVTEAWNKVAHSFNCTPIEGMLSHQLKQHVIDGEKTIIQNPTDQQKKDHEKAEFEVHEVYAVDVLVSSGEGKAKDAGQRTTIYKRDPSKQYGLKMKTSRAFFSEVERRFDAMPFTLRAFEDEKKARMGVVECAKHELLQPFNVLYEKEGEFVAQFKFTVLLMPNGPMRITSGPFEPDLYKSEMEVQDAELKALLQSSASRKTQKKKKKKASKTVENATSGETLEENGAGD
notes: Endogenous protein detected in situ by PLA; also called mouse Ebp1
Turning to B2, the binding result in assay [2] was “binds”.

Values taken from US20240325490A1 (RESEARCH AND BUSINESS FOUNDATION SUNGKYUNKWAN UNIVERSITY, published 2024).
